From the nanobody polyreactivity screen of Harvey et al. (2022)

Experiment: yeast display, Sf9 membrane polyspecificity reagent, FACS + sequencing; frameworks hold sequencing errors
In short: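 A nanobody's polyreactivity label depends on the gate it was sorted from. Yeast display cells were stained with 10% biotinylated, detergent-solubilized Sf9 membrane reagent for 1 hour at 4 °C, enriched on streptavidin microbeads and sorted by FACS. The low and high (top ~1%) gates were set on anti-HA fluorescence for expression and streptavidin fluorescence for reagent binding.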

Row | Sequence | polyreactivity (PSR sort gate)
1 | QVQLVESGGGLVQAGGSLRLSCAASGSTFQYYAMGWYREAPGKERELVAAITHSGTRTYYADSVKGRYTISRDNAKNTVYLQMNTLKPEDTAGYYCAARGYGKYDYWGQGTQVTVSS | high polyreactivity
2 | QVQLVESGGGLVQEGGSLRLSCAAAGIIFIAYAMGWYREAPGKERELVADISIGGSTNYADSVKGRFTISRDNAKNTVYLQMTSQKPEDTAVYYCNAGGGFYGSTVEHDYWGQGTQVSVSS | low polyreactivity
3 | QGQLVESGGGLVQGGGSLRFSCAASGITFQRYALGGYRQAPGKDRALVAAIRRSGTSTYYADSVKGRFPITRHNAKNPVHLQMNSLKPEDTAVKYCAAGSYPTEGSKYGYWGQGTQVTGSS | high polyreactivity
4 | KVQLVESGGGLVQAGGSLRLSCAASGNIFIPYAMGWYRQAPGKEREFVAVISTRGGSTYYADSLKGRFTISRDNAKNTVYLQMNSLKPEYTAVYYCAAGALGPRIKGWWFRRSFFYWGQGTQVTVSS | high polyreactivity
5 | QVQLVESGGGLVQAGGRLRLSCADSGSTFVNSVMGWYRPAPGKERELVAGIRFRGGRTYYADSVKGRFTISRDNAKNTVYLQMNSLKPEDTAVYYCAKVQRQSVGFDYWGQGTQVTVSS | high polyreactivity
6 | QVQLVESGGGLVQAGGSLRLSCAASGYTFRSYAMGWYRQAPGKERELVAGIDGSGGTTYYADSVKGRFTISRDNAKNTVYLQMNSLKPEDTAVYYCAAEAYKHGVWDYDYWGQGTQATVSS | low polyreactivity
7 | QVHLVESGGGLVQAGGSLRLSSAASGITFVINAMGWYRQAPGKERELVASINFDTDTTYADSEKGRFTISRDNAKNTVYLQMNSLKPEDTAVYYCNADLPWARHTVDSIEFDYWGQGTQVTVSS | low polyreactivity
8 | QVQLVESGGGLVQAGGSLRLSCAASGSIFDTYAMGWYRQAPGKERELVAAITWSGSSTYYADSVKGRFTISRDNAKNTVSLQMNRLKPEDTAVYYCAKRQYLYTSKYDYWGQGTQVTVSS | high polyreactivity
9 | QVQLVDSGGGLVQAGGSLRLSCAASGYTLSVNAMGWYRQAPGKERELVATIDFGGGSTYYADSVKGRFTISRDNAKNTVYLQMNSLKPEDTAVYYCNAHDFGFYRFSLPGYDYWGQGTQVTVSS | low polyreactivity
10 | QVQLVESGGGLVQAGGSLRLSCAASGSTFGFNALGWYRQAPGKERELVAAITFSGGTTYYADSVKGRFTISRDNAKNTVYLQMNSLKPEDTAVYYCNADVKRDRVWGGDYWGQGTQVTVSS | low polyreactivity
11 | QVQLVESGVGLVQAGGSLRLSCAASGSTFQPYSMGRYRQAPGKERELVAAIRSLAGSTYYADSVKGRFTISRDNAKNTVYLQMNSLKPEDTAVYYCAAGYNPYVGLGWYPIYDFWGQGTQVTVSS | low polyreactivity
12 | QVQLVESGGGLVQAGGSLRLSCAASGFIFRRYTMGWYTQAPGKERELVATITRSVNTDYADSVKGRFTISRDNAKNTVYLQMNSLKPEDTAVYYCAARKYYYFPVAYDYWGQGTQVTVSS | high polyreactivity
13 | QDQLGDSGGGLVQAGGSLRLSCAASGSTYSVYTMGWYRQAPGKERELVAGITSNAGSTYYADSVKGRFTISRDNAMNTVYLEMNRLKPEDTAVYYCNADRWVRTTYDYWGQGTQVTVSS | high polyreactivity
14 | QVQLVESGGGLVQAGGSLRISCAASDAMGWYRQAPGKERELVASISNGVSTNYADSVKGRFTISRDNAKNTVYLQMNSLKPEDTAVYYCAADAKTVGRDDLYWYEVEFDYWGQGTQVNVSS | low polyreactivity
15 | QVQLVESGVGLVQAGGSLSLSCAASGRTFYVNAMGWYRQAPGKERELVARITSGGSTYYGDSVKGRFTISRDNAKNTVYLQMNSLKPEDTAVYYCAKKYIGYQEGIHSTRRYDYWGQGTQVTVSS | low polyreactivity
16 | QVQLVESAGGLVQAGGSLRLSCAASGYIFVPYAMGWYRQAPGKERELVASITWSGGSTYYADSVKGRFTISRDNAKNTVYLQMNSLKPEDTAVYYCAAANYTYASRWYDYWGQGTQVTVSS | low polyreactivity
17 | QVQLVESGGGLVQAGGSLRLSCAASGRTFKLYAMGWYIQAPGKERELVAAISIRGTSTYYADSVKGRFTISRDNAKNTVYLQMNSLKPEDTAVYYCAAEDRYAYYMVRWQCYYYWGQGTQVTVSS | low polyreactivity
18 | QVQLVESGGGLVQAGGSLRVSCAASGRTFKYYARGWYRQAPGKARELVAAISGSGGSTYYADSVKGRFTISRDNAKNTVYLQMNSLKPEDTAVYYCAAAGKETSRNAYDSWGQGTQETVSS | high polyreactivity
19 | QVQLVESGGGLVQAGGSLRLSCAASGRTCGGYAMGWYRQEPGNERELVAAISYRGARTYYADSVKGRFTISRDNAKNTVYLQMNSRKPEDTAVYYCAASRPGLRTPGQMGYWGQGTQVTVSS | high polyreactivity
20 | QVQLQESGGGLVLAGGSLRLSCSASGNISVYGSMGWYRQAPGKEREFVATIDPGTNTNYADSVKDRFTISRDNAKNTVYLQMNTRKPEDTAVYYCAVEAGSDWPYRYWGQGTEVTVSS | low polyreactivity
21 | QVQLVESGGGLVQAGGSLRLSCAASGRTFWTYAMGWYRQAPGKERELVASISKSGGSTYADSVKGRFTISRDNAKNTVYLQMNSLKPEDTAVYVCAAYPYFSKGWGWYPYDYWGQGTQVTVSS | low polyreactivity
22 | QVQLVESGGGLVQAGGSLRLSCAASGIIFYFYAMGWSRQAPGKERELVAAISSGGGSTYYADSVKGRFTISRDNAKNTVYLQMNSLKPEDTAVYYCAAKIGRNFDWGQGTQVTVSS | high polyreactivity

Row | Sequence | polyreactivity (PSR sort gate)
23 | QVQLVESGGGLVQAGGSLRLSCAASGLIFYDNMGWYRQAPGKERELVAAISSSGGSTSYADSVKGRFTISRDNAKNTVYLQMNSLKPEDTAVYFCAADSYPAYLGFVGFDYWGQGTQVTVSS | low polyreactivity
24 | QVQLVESGGGLVQAGGSLRLSCAASGNTFYANTMGWYRQARTERELVAAITSGTYADSVKGRFTISRDNAKNTVYLQMNSLKPEDTAVYYCAREESLYVTDPGPSKLDYWGQGTQVTVSS | low polyreactivity
25 | QVQLVESGGGLVQAGGSLRLSCAASGRTFWYYAMGWYRPAPGKERELVATITGGARTTYADSVKGRFTISRDNAKNTVYLQMNSLKPEDTAVYYCARARNSVKRGYYYWGQGTQVTVSS | high polyreactivity
26 | QVQLVESGGGLVQAGGSLRLSCAASGSIFDFYAMGRYRQAPGKERELVAAISYSGSSTYYADSVKGRFTISRDNAKNTVYLQMNSLKPEDTAVDYCATDYPGGYVYYSRFDYWGQGTQVTVSS | low polyreactivity
27 | QVHLVESGGGLVQAGGSLRLSCAASGRTFSKYAMGWYRPAPGKERELVAAITSRGSSTYYADSVKGRFTISRDYAKNTVYLLMNSLKPEDTAVYYCNAGGYYIRTGWYRSGSDYWGQGTQVTVSS | high polyreactivity
28 | QVQLVESAGCLVQAGGSLRLSCDASGIIFKVYAMGWYSQAPGKEREWVAAISWSGSSTYYADTVKGRFTISRDKAKNTVYLQMNSLKPEDTAVYYCAAYSVARSMGYWGQGTQVTVSS | high polyreactivity
29 | QVQHVESGGGLVQAGGRLSLICSASGGNIKFNAMGWYRQAPGKERELVAAITDGGSTYYADSVKGRFTISRDNAKNTVYLEMNSLKAEDTAVYYCNAEGVSLYGYDSGVDSGEDYWGQGTQVTVSS | low polyreactivity
30 | QVQLVESGGGLVQAGGSLRLSCAASGSIFGYYAMGWYRQAPGKERELVAAISWSGGSTYYADSVKGRFTISRDNAKNTVYLQMNSLKPEDTAVYYCAATSRGNDSQKYYYWGQGTQVTVSS | low polyreactivity
31 | QVQLVESGGGLVQAGGSLRLSCAASGRTFGYYALGWYRQAPGKERELVAAISSNTDSTYYADSVKGRFTISRDNEKNTVYLQMNSLKPEDTAVYYCAAEAYSYYPGTYEDDYWGQGTQVTVSS | low polyreactivity
32 | QVQLVESGGGLVQAGGSLRLSCAASGRTFLFYAMGWYRQAPGKERELVASITLNGGSTYYADSVKGRFTISRDNAKNTVYLQMNSLKPEETAVYYCNKRTRYQIGYGYWGQGTQVTVSS | low polyreactivity
33 | QVQLVESGGGLVQAGGSLRLSCAASGNTFSVYTMGWYRQAPGKERELVAAITRGGDSTYYADSVKGRFTISRDNAKNTVYLQMNSLKPEDTAVYYCAADHDGPYAGYDSWGQGTQVTVSS | low polyreactivity
34 | QVQLVESGGGLVQAGGSLRLSCAASGLIFNTYAMGWYRQAPGKERELVAAITDGGGTNYADSVKGRFTISRDNAKNTVYLQMNSLKPEDTAVYYCAARLASWPLTYDFQWYEYWVQGTQVTVSS | low polyreactivity
35 | QVQLVESGGALVQAGGSLRLSCAASGSTFEDYAMRSSRQAPGKARELVAAISHIGGSTYYADSVKGRFTISRDNAKNTVYLQMNSLKPEDTAVYYCAKGVYSDLGYWAQGTQVTVSS | low polyreactivity
36 | QVQLVESGGGLVQAGGSLRLSCAASGGIFIDYTMGWYRQAPGKERELVAAITRGGSTYYADSVKGRFTISRDNAKNTVYLQMNSLKPEDTAVYYCAARANTPVGHNRFGYWGQGTQVTVSS | low polyreactivity
37 | QVQLVESGGGLVQAGGSLRLSCAASGRIFVINVMGWSRQAPGKERELVATITWSVGSTYYADSVKGRFTISRDTAKNTVYLQMNSLKPEDTAVYYCAAASSFKFDYWGQGTQVTVSS | low polyreactivity
38 | QVQLVESGGVLVQAGGSLRLSCAASGFTFDYYAMGWYIPAPGKERELVASISYNGGITNYADSVQGRFTISRDNAKNTVFLHMHSLKPEDTAVYYWNAVPLYYWRFDYWGQGTQVTVSS | low polyreactivity
39 | QVQLVESGGGLVQAGGSLRLSCAASGSTFVTYGMGWYRQAPGKERELVAAITRDSSTNDADSVKGRFTISRDNAKNTVYLQLNSLKPEDTAVYYCATPRLPNFIGTEYDYWGQGTQVTVSS | low polyreactivity
40 | QVQLVESGGGLVQAGGSLRFSCAASGRIYYNAMGWYRQAPGKERELVAAISGSGTRTYYADSVKGRFTISRDNAKNTVFLQMNSLKPEDTAVYYCNAKFFLAATTRYYYWGQGTQVTVSS | high polyreactivity
41 | QVQLQESGGGLVQAGGSLRLSCAASGTIFTARFMGWYRQAPGKERELVATITDGGNTNHADSVKGRFTISRDNAKNTVYLHMNSLKPEDAAVYYCAAGEVDNDTLLYWGQGSQVTVSS | low polyreactivity
42 | QVHLVESGGGLVQAGGSIRLSCAASGSTFLVYAMGWYRPAPGKGRELVAAISRSGSSTYYADSVKGRFTISRDNAMNTVYLQMIRLKPEDTAVYYCNAYSQYWLGNNYWGQGTQVTVSS | high polyreactivity
43 | QVQLVESGGGLVQAGGSLRLSCAASGSIFHIYMGGYRQAPGKERELVASMSYRGGTTYYADSVKGRFTISRDNAKNTVYLQKNSLKPEDTAVYYCNVHRDFYHYGRYGHMDYWGQGC | low polyreactivity
